Experimental data as given in patent US20180051081A1 (published 2018).
Numbering of substitutions follows the chain as printed.

T1: pig CD47 (pig, UniProt Q9GKE8 19-303)
T1 construct: whole, on cells; also called CD47 on porcine RBCs
T1 sequence (looked up): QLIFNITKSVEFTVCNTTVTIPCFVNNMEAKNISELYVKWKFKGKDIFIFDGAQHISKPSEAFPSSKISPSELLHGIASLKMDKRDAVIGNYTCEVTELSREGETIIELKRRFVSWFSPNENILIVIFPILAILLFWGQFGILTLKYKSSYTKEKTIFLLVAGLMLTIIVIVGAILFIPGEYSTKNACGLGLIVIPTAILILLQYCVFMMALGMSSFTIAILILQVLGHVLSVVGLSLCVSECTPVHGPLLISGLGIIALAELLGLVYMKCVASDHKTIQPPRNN

T2: mouse CD47 (mouse, UniProt Q61735 19-303)
T2 construct: whole, on cells; also called CD47 on mouse RBCs; CD47 on 4T1 cells
T2 sequence (looked up): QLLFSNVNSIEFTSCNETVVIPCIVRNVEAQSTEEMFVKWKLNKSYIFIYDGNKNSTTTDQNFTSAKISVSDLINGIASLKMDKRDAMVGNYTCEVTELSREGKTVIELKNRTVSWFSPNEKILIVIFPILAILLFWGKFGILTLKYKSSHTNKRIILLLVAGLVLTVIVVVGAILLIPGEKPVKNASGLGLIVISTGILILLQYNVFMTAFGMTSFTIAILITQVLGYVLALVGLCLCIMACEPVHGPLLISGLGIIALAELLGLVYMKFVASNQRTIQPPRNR

T3: dog CD47 (dog, UniProt A0A8I3PM61 19-310)
T3 construct: also called CD47 on dog RBCs
T3 sequence: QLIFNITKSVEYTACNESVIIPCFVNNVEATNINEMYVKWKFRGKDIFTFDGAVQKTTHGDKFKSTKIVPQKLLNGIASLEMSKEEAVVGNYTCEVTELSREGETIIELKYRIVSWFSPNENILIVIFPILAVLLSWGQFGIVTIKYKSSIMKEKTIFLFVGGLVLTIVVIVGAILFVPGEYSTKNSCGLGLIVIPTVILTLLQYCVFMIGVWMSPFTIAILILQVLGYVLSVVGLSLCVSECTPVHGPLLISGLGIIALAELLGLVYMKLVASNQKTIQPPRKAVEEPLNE

T4: rat CD47 (rat, UniProt P97829 19-303)
T4 construct: whole, on cells; also called CD47 on rat RBCs
T4 sequence (looked up): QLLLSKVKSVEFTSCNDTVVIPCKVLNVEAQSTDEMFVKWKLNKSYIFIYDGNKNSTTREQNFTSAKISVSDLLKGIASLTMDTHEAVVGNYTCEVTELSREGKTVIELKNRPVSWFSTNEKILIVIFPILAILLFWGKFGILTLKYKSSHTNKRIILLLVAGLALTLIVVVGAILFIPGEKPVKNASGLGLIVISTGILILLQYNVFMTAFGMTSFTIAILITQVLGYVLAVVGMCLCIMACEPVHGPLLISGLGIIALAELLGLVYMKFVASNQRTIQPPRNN

B1: Clone 15 (pVxK7b-037-hum15-LC / pVxK7b-037-hum15-HC) (antibody, human IgG1, kappa, V domains shown)
VH: QVQLQESGPGLVKPSQTLSLTCTVSGYTFTNYYVFWVRQARGQRLEWIGDINPVNGDTNFNEKFKNRLTISKDTSKNQVVLTMTNMDPVDTATYYCARGGYTMDYWGQGTLVTVSS
VL: AIQLTQSPSSLSASVGDRVTITCRSSQSLVHSNGNTYLHWYQQKPGQAPRLLIYKVSYRFSGVPSRFSGSGSGTEFTLTISSLQPDDFATYYCSQNTHVPRTFGQGTKVEIKR
B2: chimeric antibody VxP037-01LC-Pro/VxP037-01HC-Pro (antibody, human IgG1, kappa, V domains shown)
VH: EVQLQQFGAELVKPGASMKLSCKASGYTFTNYYVFWVKQRPGQGLEWIGDINPVNGDTNFNEKFKNKATLTVDKSSTTTYLQLSSLTSEDSAVYYCTRGGYTMDYWGQGTLVTVSS
VL: DVVMTQTPLSLSVSLGDQASISCRSSQSLVHSNGNTYLHWYLQKPGQSPKLLIYKVSYRFSGVPDRFSGSGSGTDFTLKISRVEAEDLGVYFCSQNTHVPRTFGQGTKVEIKR
notes: also called Chimera; VxP037-01LC/VxP037-01HC
B3: Clone 1 (pVxK7b-037-hum01-LC / pVxK7b-037-hum01-HC) (antibody, human IgG1, kappa)
light: DIVMTQTPLSLPVTPGEPASISCRSSQSLVHSNGNTYLHWYQQKPGKAPKLLIYKVSYRFSGVPDRFSGSGSGTDFTLKISRVEAEDVGVYYCSQNTHVPRTFGQGTKVEIKRTVAAPSVFIFPPSDEQLKSGTASVVCLLNNFYPREAKVQWKVDNALQSGNSQESVTEQDSKDSTYSLSSTLTLSKADYEKHKVYACEVTHQGLSSPVTKSFNRGEC
heavy: not shown
notes: also called Cl 1
B4: Clone 20 (pVxK7b-037-hum20-LC / pVxK7b-037-hum20-HC) (antibody, human IgG1, kappa)
light: B3 light with Q42L, K47Q, A48S, K50Q
heavy: not shown
B5: Clone 19 (pVxK7b-037-hum19-LC / pVxK7b-037-hum19-HC) (antibody, human IgG1, kappa)
light: B3 light with I2V, T7S, P15L, E17Q
heavy: not shown
B6: Clone 13 (pVxK7b-037-hum13-LC / pVxK7b-037-hum13-HC) (antibody, human IgG1, kappa)
light: B3 light
heavy: not shown
notes: also called Cl 13
B7: Clone 3 (pVxK7b-037-hum03-LC / pVxK7b-037-hum03-HC) (antibody, human IgG1, kappa)
light: B3 light with I2V, T7S, P15L, E17Q
heavy: not shown
B8: Clone 14 (pVxK7b-037-hum14-LC / pVxK7b-037-hum14-HC) (antibody, human IgG1, kappa)
light: B3 light with I2V, T7S, P15L, E17Q
heavy: not shown

target: T1, pig CD47; test: FACS, pig RBCs, supernatant 10 ng/ml
Procedure: (§1) RBCs are incubated for 60 minutes on ice with tissue culture supernatants containing the secreted humanized antibodies at a concentration of 10 ng/ml in a solution of phosphate buffered saline, pH 7.2, 2.5 mM EDTA (PBS+E), or with various concentrations of purified antibodies. Cells are then washed with cold PBS+E, and incubated for an additional hour on ice with FITC labeled donkey anti-human antibody (Jackson Immuno Research Labs, West Grove, Pa.; Catalogue #709-096-149) in PBS+E. Cells are then washed with PBS+E, and antibody binding is analyzed using a BD FACSAria Cell Sorter (Becton Dickinson) or a C6 Accuri Flow Cytometer (Becton Dickinson). Antibody binding is quantitated by comparison of mean fluorescence values relative to that of chimeric antibody >VxP037-01LC (SEQ ID NO:7))/>VxP037-01HC (SEQ ID NO:57). The mean fluorescence value for each antibody is divided by the mean fluorescence value for the chimeric antibody.

Binder | mean fluorescence relative to chimera
B1 | 1.2
B2 | 1
B3 | 1.3
B4 | 1.7
B5 | 1.3
B6 | 1.4
B7 | 0.9
B8 | 1.4

target: T5, human CD47 (human, UniProt Q08722 19-323); test: FACS, human RBCs, supernatant 10 ng/ml
T5 construct: whole, on cells; also called CD47 on human RBCs; CD47 on OV10 cells
T5 sequence (Q08722 19-323): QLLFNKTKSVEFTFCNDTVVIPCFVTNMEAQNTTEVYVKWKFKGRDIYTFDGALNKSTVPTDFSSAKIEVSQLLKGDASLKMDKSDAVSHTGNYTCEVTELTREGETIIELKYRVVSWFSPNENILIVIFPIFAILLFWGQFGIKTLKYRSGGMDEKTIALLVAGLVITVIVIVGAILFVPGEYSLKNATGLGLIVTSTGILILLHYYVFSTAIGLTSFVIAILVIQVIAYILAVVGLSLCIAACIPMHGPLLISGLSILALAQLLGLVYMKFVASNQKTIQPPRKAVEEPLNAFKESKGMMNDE
Procedure: as §1

Binder | mean fluorescence relative to chimera
B1 | 1
B2 | 1
B3 | 1.1
B4 | 1.3
B5 | 0.7
B6 | 1.2
B7 | 0.7
B8 | 1.1

target: T2, mouse CD47; test: FACS, mouse RBCs, supernatant 10 ng/ml
Procedure: as §1

Binder | mean fluorescence relative to chimera
B1 | 1.3
B2 | 1
B3 | 1.7
B4 | 1.5
B5 | 1
B6 | 1.3
B7 | 0.9
B8 | 1.5

target: T3, dog CD47; test: FACS, dog RBCs, supernatant 10 ng/ml
Procedure: as §1

Binder | mean fluorescence relative to chimera
B1 | 1.1
B2 | 1
B3 | 1
B4 | 1.1
B5 | 1.2
B6 | 1
B7 | 0.9
B8 | 1.3

target: T4, rat CD47; test: FACS, rat RBCs, supernatant 10 ng/ml
Procedure: as §1

Binder | mean fluorescence relative to chimera
B1 | 2.4
B2 | 1
B3 | 2.7
B4 | 1.9
B5 | 2.6
B6 | 3.1
B7 | 1.7
B8 | 3.2
